For assay [1], the target named is T1, FLAG-PEX7 (recombinant N-terminally FLAG-tagged human PEX7) (human, UniProt O00628 1-323).
T1 construct: PEX7, human; also called recombinant human FLAG-tagged PEX7; source: Hi5 insect cells (baculovirus, pACEBac1), purified (anti-FLAG M2 beads, FLAG peptide elution); not shown: FLAG, N-terminal, kept
T1 sequence (looked up): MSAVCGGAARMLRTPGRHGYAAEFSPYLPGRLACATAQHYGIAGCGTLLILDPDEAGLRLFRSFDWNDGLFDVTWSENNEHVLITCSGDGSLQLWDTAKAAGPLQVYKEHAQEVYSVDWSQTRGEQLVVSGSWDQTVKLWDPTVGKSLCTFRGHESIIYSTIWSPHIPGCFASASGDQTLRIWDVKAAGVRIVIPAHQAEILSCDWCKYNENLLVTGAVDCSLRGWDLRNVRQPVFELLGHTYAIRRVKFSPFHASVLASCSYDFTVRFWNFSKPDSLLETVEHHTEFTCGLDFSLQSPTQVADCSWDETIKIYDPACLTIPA
Nature of the assay: native gel or EMSA; only recombinant proteins, two at a time (approximately 5 µg each of FLAG-PEX7, GST-HsPEX39, His-PEX5(1–324), His-PHYH); Coomassie staining; excised bands immunoblotted. Particulars: both partners purified.

For assay [2], the target named is T1, FLAG-PEX7 (recombinant N-terminally …). Nature of the assay: SEC; Superdex 200 Increase 3.2/300, 50 mM Tris-HCl pH 7.5, 150 mM NaCl, 1 mM EDTA; proteins (10–15 µg) alone or mixed, 15 min at 23 °C before injection; fractions on SDS-PAGE. Particulars: both partners purified. A general note: Size exclusion chromatography separates by hydrodynamic size, large species first.

Where no end group is shown, it is not given here.

B1: GST-HsPEX39 (N-terminally GST-tagged human PEX39, C6ORF226) (natural protein, UniProt Q5I0X4 1-101, looked up)
chain: MERPRSPQCSAPASASASVTLAQLLQLVQQGQELPGLEKRHIAAIHGEPTASRLPRRPKPWEAAALAESLPPPTLRIGTAPAEPGLVEAATAPSSWHTVGP
notes: HsPEX39 (C6ORF226), human; plasmid pGEX-HsPEX39 (pGEX-6-P1); 101 residues by the printed limits of the 48–101 variant; also called recombinant HsPEX39; wild-type (WT) HsPEX39; source: E. coli BL21(DE3), purified (Glutathione Sepharose 4B); not shown: GST, N-terminal, kept
As to B1, in assay [1], the binding result is “binds”.

B2: NtPEX13 (HsPEX13 residues 1–36 fused to Sumo1 with a hexa-histidine tag) (domain or fragment, human, UniProt Q92968 1-36, looked up)
chain: MASQPPPPPKPWETRRIPGAGPGPGPGPTFQSADLG
modifications: also: fused to Sumo1 with a hexa-histidine tag
notes: PEX13, human, residues 1–36; also called NtPEX13.Sumo.His; PEX13 N terminus; source: recombinant (plasmid pET23a-NtPEX13.Sumo.His); not shown: His6, C-terminal, kept
As for B2, the binding result in assay [2] is on record as “binds”.
